The record followed here is patent EP1486509A2, “Radiolabeled annexin-galactose cluster conjugates” (NEORX CORPORATION, priority 1994, dated 1996).

Data set [1] can be described thus: Blood clearance in the swine model. As to conditions: in vivo. From the text: An animal model, as previously described in Example III, was employed to evaluate blood clearance of the molecules.
The subject of data set [2] is atrial thrombi and injured left atrium. Details: species or system Yorkshire swine. As to conditions: in vivo. As to the method:
Image acquisition was performed as described below. […] A final blood sample was taken for well counting.
D. Sample Collection. […] Each vial was counted for 1 minute.
Well counting ratios were obtained for a variety of tissue samples. For the injured tissues and thrombi, multiple specimens were usually taken from the same animal. In those cases, the maximum ratio for any one specimen is reported, as well as the average of all specimens taken. The maximum for each animal was averaged across all animals and is reported as the Maximum Anx-V Ratio.

As for “Tc-99m-annexin V: Annexin V radiolabeled with Tc-99m by a diamide dimercaptide N2S2 chelate (Example I)”, in data set [1], the “%ID/g a” value is given as “%ID/g a = 0.0389” and the “%ID/g b” value was “%ID/g b = 0.0300”. In addition, the highest non-target localization result in data set [2] is “kidney”.
